Article doi:10.1101/2020.10.06.328377

Legend:
[1] = target: MsSepF_(core) (Methanobrevibacter smithii SepF, C-terminal FtsZ-binding core, amino acids 54 to 149) (Methanobrevibacter smithii)
[2] = target: MsSepF_(core) (Methanobrevibacter smithii SepF, C-terminal FtsZ-binding core, amino acids 54 to 149) (Methanobrevibacter smithii); experiment: thermal shift assay

Molecule	stoichiometry N [1]	melting temperature of MsSepFcore upon addition of MsFtsZCTD (70.6 °C without) [2] [°C]
MsSepF_(core) (Methanobrevibacter smithii SepF, C-terminal FtsZ-binding core, amino acids 54 to 149) (domain or fragment)	2	–
NEDQLDDFIDGIF [FtsZCTD peptide (C-terminal domain of M. smithii FtsZ)]	–	82.3
